Data: doi:10.1101/484048
Where two headings read alike, the source gives them in different places.

Columns and labels:
[1] = molecular target: human methylmalonyl-CoA epimerase p.Arg143Cys variant (human) (UniProt Q96PE7); assay: crystal structure
[2] = molecular target: human methylmalonyl-CoA epimerase, wild type (human) (UniProt Q96PE7)
[3] = molecular target: human methylmalonyl-CoA epimerase, wild type (human) (UniProt Q96PE7); assay: crystal structure

human methylmalonyl-CoA epimerase p.Arg143Cys variant (from UniProt Q96PE7 45-176) (enzyme)
stoichiometry N [1]: 2

human methylmalonyl-CoA epimerase, wild type (from UniProt Q96PE7 45-176) (enzyme)
stoichiometry N [2]: 2
stoichiometry N [3]: 2
